Measurements as given in patent US20040018977A1 (published 2004).

Biological target: T1, NCK2, aa 1-380, Activation Domain (AD) fusion (human, UniProt O43639 1-380)
T1 construct: range 1-380; Also used for the sentences that name NCK2 as a partner of the cytoplasmic domain
Test: yeast two-hybrid matrix mating assay, beta-gal read-out
Method: Matrix Mating Haploid cells for the PathCalling matrix mating assay are grown up individually in 384 well plates using selective liquid media. After 1-2 days, the mating is done entirely in a nutrient rich media. The resulting diploid cells are then selected using a selective liquid media. The optical density (O.D.) of the diploid cells is measured using a spectrophotometer to measure and the cells are then transferred to a fresh plate for a Beta-gal assay. This assay is performed to determine if there is an interaction between the two proteins being tested. The Beta-gal assay is performed as follows:
2. The β-gal buffer is made using the following (per 384 well plate): 7.1 ml Sigma water, 7.5 ml 4X Z-buffer, 0.3 ml 20% IGEPAL, 30 mg CPRG, 75 μl Lyticase (10,000 U/ml) and 3.30 μl of β-gal buffer is added to each well of the plate made in step 1 using a multi-drop 384.

T1 sequence (O43639 whole entry, the tested form may be a part): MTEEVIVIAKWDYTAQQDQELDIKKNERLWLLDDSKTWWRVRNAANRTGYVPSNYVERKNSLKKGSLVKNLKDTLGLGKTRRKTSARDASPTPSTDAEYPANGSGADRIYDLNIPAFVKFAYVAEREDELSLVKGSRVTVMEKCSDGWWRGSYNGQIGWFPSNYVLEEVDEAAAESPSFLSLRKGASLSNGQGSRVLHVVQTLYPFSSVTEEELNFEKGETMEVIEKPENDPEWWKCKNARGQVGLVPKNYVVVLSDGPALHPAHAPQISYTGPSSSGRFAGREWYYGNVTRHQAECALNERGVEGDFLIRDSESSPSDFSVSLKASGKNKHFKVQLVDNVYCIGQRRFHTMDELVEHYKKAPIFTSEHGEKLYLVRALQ

binding result | Binder
binds | CG51896-10, intracellular domain, aa 950-1047, Binding Domain (BD) fusion (other, not shown: large carriers, also called NOV2r) TLKRNNTNSSNSSHLSRNQSFGRGDNPPPAPQRVDSIQVHSSQPSGQAVTVSRQPSLNAYNSLTRSGLKRTPSLKPDVPPKPSFAPLSTSMKPNDACT
binds | CG51896-10, intracellular domain, aa 805-1047, Binding Domain (BD) fusion (other, not shown: large carriers, also called NOV2r) TKDMPPMGSPVIPTDLPLRASPSHIPSVVVLPITQQGYQHEYVDQPKMSEVAQMALEDQAATLEYKTIKEHLSSKSPNHGVNLVENLDSLPPKVPQREASLGPPGASLSQTGLSKRLEMHHSSSYGVDYKRSYPTNSLTRSHQATTLKRNNTNSSNSSHLSRNQSFGRGDNPPPAPQRVDSIQVHSSQPSGQAVTVSRQPSLNAYNSLTRSGLKRTPSLKPDVPPKPSFAPLSTSMKPNDACT
binds | CG51896-10, intracellular domain, aa 690-1047, Binding Domain (BD) fusion (other, also called NOV2r) VCDHRRKDVAVVQRKEKELTHSRRGSMSSVTKLSGLFGDTQSKDPKPEAILTPLMHNGKLATPGNTAKMLIKADQHHLDLTALPTPESTPTLQQKRKPSRGSREWERNQNLINACTKDMPPMGSPVIPTDLPLRASPSHIPSVVVLPITQQGYQHEYVDQPKMSEVAQMALEDQAATLEYKTIKEHLSSKSPNHGVNLVENLDSLPPKVPQREASLGPPGASLSQTGLSKRLEMHHSSSYGVDYKRSYPTNSLTRSHQATTLKRNNTNSSNSSHLSRNQSFGRGDNPPPAPQRVDSIQVHSSQPSGQAVTVSRQPSLNAYNSLTRSGLKRTPSLKPDVPPKPSFAPLSTSMKPNDACT
